How the values were obtained:
[1] = system: HIV-1 Env SF162 mediated fusion of HeLa effector cells with HEK293-CCR5 target cells expressing human CD4; assay type: cell-based; details: β-Gal activity at 570 nm after 2.5 h at 37° C.; FIG. 4
HIV-1 NL4-3 = assay: Inhibition of HIV-1 NL4-3 replication in peripheral blood lymphocytes (p24 antigen ELISA); assay type: cell-based; details: FIG. 2, similar to Enfuvirtide (T20)
[2] = system: HIV-1 virus, three clades (European, Indian and African origin); details: three clades of HIV-1; due to interference in entry of HIV-1 to host cells; cited from earlier work

Molecule	inhibition of cell to cell fusion compared to positive control Enfuvirtide (T20) [1]	EC50 (HIV-1 NL4-3) [nM]	growth inhibition of HIV-1 [2] [%]
MPT63 (protein, UniProt P9WIP1 30-159, looked up) Immunogenic protein MPT63: AYPITGKLGSELTMTDTVGQVVLGWKVSDLKSSTAVIPGYPVAGQVWEATATVNAIRGSVTPAVSQFNARTADGINYRVLWQAAGPDTISGATIPQGEQSTGKIYFDVTGPSPTIVAMNNGMEDLLIWEP	more inhibition of cell to cell fusion	0.01	–
azurin: 128 amino acid P. aeruginosa protein with anticancer, anti-HIV-1 and antiparasitic activity (protein, UniProt P00282 21-148, looked up) Azurin: AECSVDIQGNDQMQFNTNAITVDKSCKQFTVNLSHPGNLPKNVMGHNWVLSTAADMQGVVTDGMASGLDKDYLKPDDSRVIAHTKLIGSGEKDSVTFDVSKLKEGEQYMFFCTFPGHSALMKGTLTLK	–	–	≥ 90

Reference: patent US20140011735A1, “ANTIVIRAL COMPOSITION” (AMRITA THERAPEUTICS LIMITED, priority 2011, published 2014)
